Experiments:
Assay type in all cases: cell-based
[1] = biological target: T1, interaction between Cabin 1-14 and full length calcineurin β2 (H160N) (Homo sapiens, UniProt P16298, H160N); assay: mammalian two-hybrid assay in Jurkat T cells (luciferase reporter); settings: Jurkat T cells stimulated with PMA and ionomycin
T1 construct: expressed in transfected cells; host or cells: Jurkat T cells
Source text: (§1) A mammalian two-hybrid system was established in Jurkat T cells by fusing calcineurin with the Gal4 DNA binding domain and Cabin 1-14 with the VP16 activation domain (Hsu et al., Proc. Natl. Acid Sci. USA 91:3181-3185 (1994)). The fusion plasmids for mammalian two-hybrid assays were constructed as follows: The cDNAs of calcineurin Aβ2 wild type and H160N mutant were fused to the GAL4 DB in the pM vector (obtained from Clontech, Palo Alto, Calif.) (pMCNβ2 and PMCNβ2 (H160N), and the cDNA of Cabin 1-14 was fused to the VP16 AD in the pVP16 vector (pVPCabin 1-14). Jurkat T cells were transfected with 5 μg of pMCβ2 or pMCβ2 (H160N), 5 μg of pVPCabin 1-14, 1 μg of pCMV-βGal, and 2 μg of pg5Luc, a luciferase reporter plasmid containing GAL4 promoter, by electroporation (960 μF, 250V). After 48 hr, cells were stimulated with 40 nM PMA and 2.5 μM ionomycin, either alone or in combination, for 6 hr before luciferase activity was measured for each sample. The luciferase reporter gene assay reagents were obtained from Promega, Madison, Wis., and the assay was performed per manufacturer's instructions. […] Where appropriate, the transfection efficiency was measured by co-transfecting 2 μg of CMV-driven β-galactosidase expression vector and measuring enzymatic β-galactosidase activity (Ausubel et al., Current Protocols in Molecular Biology (John Wiley & Sons, Inc., New York, 1994)).

[2] = biological target: T2, interaction between Cabin 1-14 and wild type calcineurin β2 (Homo sapiens, UniProt P16298); assay: as above; settings: Jurkat T cells stimulated with PMA and ionomycin
T2 construct: expressed in transfected cells; host or cells: Jurkat T cells
Source text: as §1

[3] = biological target: T3, wild type full-length calcineurin (Homo sapiens, UniProt P16298); assay: co-immunoprecipitation of Cabin 1-14 and calcineurin from Jurkat T cells; settings: PMA, ionomycin or both for 3 hrs
T3 construct: expressed in transfected cells; host or cells: Jurkat T cells
Source text: In the mammalian two-hybrid system, the interaction between full-length calcineurin and Cabin 1-14 required ionomycin, which is consistent with the activation of full-length calcineurin by calcium and calmodulin. Unexpectedly, this interaction also required PMA (see FIG. 3C). Since PMA is known to activate PKC, the effect of a PKC-specific inhibitor, bisindolylmaleimide (Toullec et a., J. Biol. Chem. 266:15771-15781 (1991)), was examined on the PMA/ionomycin-stimulated interaction between Cabin 1-14 and calcineurin. […] In addition to the mammalian two-hybrid system, the interaction of Cabin 1-14 and the wild type full-length calcineurin was also confirmed by co-immunoprecipitation (See FIG. 3E). […] Jurkat T cells transfected with pSG-HACNAβ2 and pSG-Cabin 1-14 were stimulated with PMA, ionomycin or both for 3 hrs. The cells were lysed in a lysis buffer (20 mM TrisHCl, pH 7.4, 0.1M NaCl, 1% Triton X-100, 0.5% NP-40 and 0.5 mM PMSF). Cell lysates thus prepared were incubated with anti-Cabin 1 polyclonal antibodies and protein A/G agarose (Santa Cruz) for 2 hr., washed with lysis buffer and boiled in SDS sample buffer. The samples were subjected to 10% SDS-PAGE, transferred to nitrocellulose which was probed with anti-HA monoclonal antibodies and developed with ECL reagents (Amersham, Arlington Heights, Ill.). […]

[4] = system: IL-2 promoter; assay: IL-2 promoter luciferase reporter gene assay in Jurkat T cells; settings: PMA and ionomycin
[5] = system: AP-1 binding sites derived from the IL-2 promoter; assay: AP-1 luciferase reporter gene assay in Jurkat T cells; settings: coexpression
[6] = system: ARRE (Oct1/AP-1) binding sites derived from the IL-2 promoter; assay: ARRE (Oct1/AP-1) luciferase reporter gene assay in Jurkat T cells; settings: coexpression
[7] = system: NF-AT binding sites derived from the IL-2 promoter; assay: NF-AT luciferase reporter gene assay in Jurkat T cells; settings: coexpression
[8] = system: NF-κB binding sites derived from the IL-2 promoter; assay: NF-κB luciferase reporter gene assay in Jurkat T cells; settings: coexpression
[9] = system: calcineurin phosphatase activity; assay: calcineurin-mediated dephosphorylation of ΔNF-AT1 in Jurkat T cells (Western blot)
Source text: To determine if the inhibition of IL-2 promoter by Cabin1-14 is mediated through the inhibition of calcineurin phosphatase activity in vivo, the effect of Cabin 1-14 on the calcineurin-mediated dephosphorylation of the N-terminal fragment of NF-ATI (ΔNF-AT1), upon treatment with ionomycin and PMA, was examined. Jurkat T cells were transfected with expression vectors for Cabin 1-14 (pSGCabin 1-14) and for HA-epitope tagged, truncated NF-AT1 (1-460) fused to green fluorescent protein (pSG-ΔNF-AT1 (1-460) by electroporation as described above. After 48 hrs, cells were treated with PMA and ionomycin, either alone or in combination, for another 1 hr. Whole-cell lysates were prepared and subjected to 8% SDS-polyacrylamide gel electrophoresis, transferred to nitrocellulose membrane (Schleicher & Schuell, New Hampshire), probed with anti-HA epitope monoclonal antibody, and developed with ECL reagents (Amersham, Arlington Heights, Ill.).

T3 sequence (P63098 2-170 partner limits assumed, other chains not shown): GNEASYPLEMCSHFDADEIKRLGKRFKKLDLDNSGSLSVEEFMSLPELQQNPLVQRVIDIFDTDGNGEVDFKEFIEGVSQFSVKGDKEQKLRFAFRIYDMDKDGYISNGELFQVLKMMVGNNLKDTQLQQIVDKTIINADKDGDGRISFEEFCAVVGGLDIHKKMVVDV

B1: Cabin 1-14: C-terminal fragment of Cabin 1 polypeptide, SEQ ID NO:5 (protein, listed as Homo sapiens)
chain: KFPPEITVTPPTPTLLSPKGSISEETKQKLKSAILSAQSAANVRKESLCQPALEVLETSSQESSLESETDEDDDYMDI
interaction with full length calcineurin β2 (H160N) mutant [1]: strong interaction | interaction with wild type calcineurin relative to the mutant enzyme [2]: several fold weaker | coprecipitation with wild type calcineurin [3]: coprecipitated only upon stimulation of Jurkat T cells with both PMA and ionomycin | coprecipitation with wild type calcineurin ([3]; listed as Cabin1-14): dependent on both PKC and calcium stimulation | effect on IL-2 reporter gene activation [4]: potently inhibited | effect on IL-2 reporter gene activation ([4]; listed as Cabin1-14): inhibit | effect on AP-1 reporter gene [5]: inhibited | effect on AP-1 reporter gene ([5]; listed as Cabin1-14): inhibits | effect on ARRE (Oct1/AP-1) reporter gene [6]: inhibited | effect on ARRE (Oct1/AP-1) reporter gene ([6]; listed as Cabin1-14): inhibits | effect on NF-AT reporter gene [7]: inhibited | effect on NF-AT reporter gene ([7]; listed as Cabin1-14): inhibits | effect on NF-κB reporter gene [8]: inhibited | effect on NF-κB reporter gene ([8]; listed as Cabin1-14): inhibits | inhibition of ΔNF-AT1 dephosphorylation in the presence of PMA versus in its absence ([9]; ionomycin with PMA versus without): larger extent | effect on dephosphorylation of ΔNF-AT1 ([9]; overexpression, ionomycin in the presence or absence of PMA): inhibited
